Reference: patent US20220380444A1

Biological target: mouse complement protein C5 (mouse) (UniProt P06684)
Experiment: cell-based or functional assay

Sequence of monoclonal anti-C5 antibody BB5.1 (VH): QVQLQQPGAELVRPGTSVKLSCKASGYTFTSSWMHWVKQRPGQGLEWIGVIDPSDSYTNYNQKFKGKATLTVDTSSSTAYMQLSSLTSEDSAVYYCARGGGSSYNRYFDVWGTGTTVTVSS
Sequence of monoclonal anti-C5 antibody BB5.1 (VL): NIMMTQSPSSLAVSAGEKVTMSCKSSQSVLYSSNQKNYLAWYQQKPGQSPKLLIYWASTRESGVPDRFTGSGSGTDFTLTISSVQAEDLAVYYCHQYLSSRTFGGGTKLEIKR

Row | Substance | 50% Inhibitory Dose, classical pathway haemolysis assay [ng/mL] | Haemolytic Units (HU), classical pathway haemolysis assay [HU]
1 | Crovalimab (original name SKY59) (antibody) | 1860 | 1.4
2 | monoclonal anti-C5 antibody BB5.1 | 614 | 16.3
